Results as given in patent US20250213711A1, “ANTI-CANAG ANTIBODY CONJUGATE” (IKSUDA THERAPEUTICS LIMITED, priority 2022, published 2025).

Columns and labels:
CanAg antigen (human) [1] = molecular target: CanAg antigen (human) (UniProt P15941); assay: flow cytometry on CanAg positive Colo205 cells, AF488 anti-human IgG secondary, MFI curve
CanAg antigen (human) [2] = molecular target: CanAg antigen (human) (UniProt P15941); assay: flow cytometry on SNU-16 cells, 20 µg/mL PE conjugate, Quantibrite PE beads
CanAg antigen (human) [3] = molecular target: CanAg antigen (human) (UniProt P15941); assay: flow cytometry on BxPC3 cells, 20 µg/mL PE conjugate, Quantibrite PE beads
CanAg antigen (human) [4] = molecular target: CanAg antigen (human) (UniProt P15941); assay: flow cytometry on N87 cells, 20 µg/mL PE conjugate, Quantibrite PE beads
CanAg antigen (human) [5] = molecular target: CanAg antigen (human) (UniProt P15941); assay: flow cytometry on Colo205 cells, 20 µg/mL PE conjugate, Quantibrite PE beads
CanAg antigen (human) [6] = molecular target: CanAg antigen (human) (UniProt P15941); assay: flow cytometry on HT-29 cells, 20 µg/mL PE conjugate, Quantibrite PE beads
Colo-205 xenograft = conditions: CB17 SCID mice, single intravenous dose 2 mg/kg (53 nmol drug/kg), calculation based on day 16
Protocol: Mice were subcutaneously inoculated into the right flank with 5×10^6 Colo-205 cells in 0.2 mL of DPBS mixed 1:1 with BD Matrigel. […] Tumour size was measured thrice weekly in two dimensions using a calliper, and the volume was expressed in mm^3 using the formula: V=0.5 a×b^2 where a and b are the long and short diameters of the tumour, respectively (see FIGS. 17A, 18 A and 19 A). The tumour size was then used for calculations of TGI (%) values (see Table 5). TGI, representing antitumor effectiveness, were calculated using the formula TGI (%)=[1-(Vtreat-t−Vtreat-1)/(Vcontrol-t−Vcontrol-1)]×100, where Vtreat-1 and Vcontrol-1 are the mean volumes of the treated and control groups on grouping day; Vtreat-t and Vcontrol-t are the mean volumes of the treated and control groups on a given day. Animals were euthanized when tumour volumes reached 2000 mm^3. Body weight was also measured thrice weekly as a measure of compound toxicity (see FIGS. 17 B, 18 B and 19 B).

BxPC3 xenograft = assay: In vivo efficacy study in BxPC3 xenograft model; design: species or system mice
Protocol: Conjugate doses of 0.4 mg/kg (5.3 nmol of conjugated drug/kg), 1 mg/kg (13 nmol of conjugated drug/kg) for ADC-2 and ADC-3, and 0.2 mg/kg (5.3 nmol of conjugated drug/kg) and 0.5 mg/kg (13 nmol of conjugated drug/kg) for Cantuzumab ravtansine were used.

[7] = test system: NCI-N87 gastric cancer xenograft; assay: In vivo efficacy study in NCI-N87 xenograft model; design: species or system mice; conditions: single intravenous dose 2 mg/kg (53 nmol drug/kg), day 33
From the text: (§1) The ADC non-binding control was an anti-CD19 ADC (DAR 2.0) composed of the same linker-drug combination as ADC-3.

Colo-205 cells = assay: Cell Titre-Glo (CTG) in vitro activity assay, Colo-205; format: cell-based, human; conditions: 72 h, 10% FBS (FIG. 16)
From the text: as §1

B1: HC1 + LC1 (antibody, human IgG1, kappa, V domains shown)
VH: QVQLVQSGAEVKKPGASVKVSCKASDYTFTYYGINWVRQAPGQGLEWMGWIDTTTGEPNYAQKLQGRVTFTLDTSASTAYMELRSLRSDDTAVYYCARRGPYNWYFDVWGQGTLVTVSS
VL: DIVMTQTPLSLPVTPGEPASISCRSSKSLLHSNGNTYLYWYLQKPGQSPQLLIYRMSNRASGVPDRFSGSGSGTDFTLKISRVEAEDVGVYYCLQHLEYPFTFGPGTKVDIKR
CanAg antigen (human) [1]
  EC50: 0.274 µg/mL

B2: Phycoerythrin (PE)-conjugated HC1LC1 antibody (antibody, V domains shown)
VH: QVQLVQSGAEVKKPGASVKVSCKASDYTFTYYGINWVRQAPGQGLEWMGWIDTTTGEPNYAQKLQGRVTFTLDTSASTAYMELRSLRSDDTAVYYCARRGPYNWYFDVWGQGTLVTVSS
VL: DIVMTQTPLSLPVTPGEPASISCRSSKSLLHSNGNTYLYWYLQKPGQSPQLLIYRMSNRASGVPDRFSGSGSGTDFTLKISRVEAEDVGVYYCLQHLEYPFTFGPGTKVDIKR
modifications: R-phycoerythrin conjugated by Lightning-Link kit; sites not stated
CanAg antigen (human) [2]
  PE molecules per cell (PE molecules per cell): 1.15e+07
CanAg antigen (human) [3]
  PE molecules per cell (PE molecules per cell): 75300
CanAg antigen (human) [4]
  PE molecules per cell (PE molecules per cell): 2570
CanAg antigen (human) [5]
  PE molecules per cell (PE molecules per cell): 2.61e+06
CanAg antigen (human) [6]
  PE molecules per cell (PE molecules per cell): 626000

B3: HC3 + LC2 (antibody, human IgG1, kappa, V domains shown)
VH: QVQLVQSGAEVKKPGASVKVSCKASDYTFTYYGINWVRQATGQGLEWMGWIDTTTGEPTYAQKFQGRVTFTLETSISTAYMELSSLRSEDTAVYYCARRGPYNWYFDVWGAGTLVTVSS
VL: DIVMTQSPLSLPVTPGEPASISCRSSKSLLHSNGNTYLYWYLQKPGQSPQLLIYRMSNLASGVPDRFSGSGSGTDFTLKISRVEAEDVGVYYCLQHLEYPFTFGPGTKVDIKR
CanAg antigen (human) [1]
  EC50: 0.327 µg/mL

B4: HC2 + LC1 (antibody, human IgG1, kappa, V domains shown)
VH: QVQLVQSGAEVKKPGASVKVSCKASDYTFTYYGMNWVRQAPGQGLEWMGWIDTTTGEPSYAQKFQGRVTFTLDTSASTVYMELSSLRSEDTAVYYCARRGPYNWYFDVWGQGTLVTVSS
VL: DIVMTQTPLSLPVTPGEPASISCRSSKSLLHSNGNTYLYWYLQKPGQSPQLLIYRMSNRASGVPDRFSGSGSGTDFTLKISRVEAEDVGVYYCLQHLEYPFTFGPGTKVDIKR
CanAg antigen (human) [1]
  EC50: 0.351 µg/mL

B5: HC2 + LC2 (antibody, human IgG1, kappa, V domains shown)
VH: QVQLVQSGAEVKKPGASVKVSCKASDYTFTYYGMNWVRQAPGQGLEWMGWIDTTTGEPSYAQKFQGRVTFTLDTSASTVYMELSSLRSEDTAVYYCARRGPYNWYFDVWGQGTLVTVSS
VL: DIVMTQSPLSLPVTPGEPASISCRSSKSLLHSNGNTYLYWYLQKPGQSPQLLIYRMSNLASGVPDRFSGSGSGTDFTLKISRVEAEDVGVYYCLQHLEYPFTFGPGTKVDIKR
CanAg antigen (human) [1]
  EC50: 0.408 µg/mL

B6: HC1 + LC2 (antibody, human IgG1, kappa, V domains shown)
VH: QVQLVQSGAEVKKPGASVKVSCKASDYTFTYYGINWVRQAPGQGLEWMGWIDTTTGEPNYAQKLQGRVTFTLDTSASTAYMELRSLRSDDTAVYYCARRGPYNWYFDVWGQGTLVTVSS
VL: DIVMTQSPLSLPVTPGEPASISCRSSKSLLHSNGNTYLYWYLQKPGQSPQLLIYRMSNLASGVPDRFSGSGSGTDFTLKISRVEAEDVGVYYCLQHLEYPFTFGPGTKVDIKR
CanAg antigen (human) [1]
  EC50: 0.268 µg/mL

B7: HC3 + LC1 (antibody, human IgG1, kappa, V domains shown)
VH: QVQLVQSGAEVKKPGASVKVSCKASDYTFTYYGINWVRQATGQGLEWMGWIDTTTGEPTYAQKFQGRVTFTLETSISTAYMELSSLRSEDTAVYYCARRGPYNWYFDVWGAGTLVTVSS
VL: DIVMTQTPLSLPVTPGEPASISCRSSKSLLHSNGNTYLYWYLQKPGQSPQLLIYRMSNRASGVPDRFSGSGSGTDFTLKISRVEAEDVGVYYCLQHLEYPFTFGPGTKVDIKR
CanAg antigen (human) [1]
  EC50: 0.266 µg/mL

B8: HC1 + LC3 (antibody, human IgG1, kappa, V domains shown)
VH: QVQLVQSGAEVKKPGASVKVSCKASDYTFTYYGINWVRQAPGQGLEWMGWIDTTTGEPNYAQKLQGRVTFTLDTSASTAYMELRSLRSDDTAVYYCARRGPYNWYFDVWGQGTLVTVSS
VL: DIVMTQTPLSLSVTPGQPASISCKSSKSLLHSNGNTYLYWYLQKPGQSPQLLIYRMSNLFSGVPDRFSGSGSGTDFTLKISRVEAEDVGVYYCLQHLEYPFTFGPGTKVDIKR
CanAg antigen (human) [1]
  EC50: 0.305 µg/mL

B9: HC3 + LC3 (antibody, human IgG1, kappa, V domains shown)
VH: QVQLVQSGAEVKKPGASVKVSCKASDYTFTYYGINWVRQATGQGLEWMGWIDTTTGEPTYAQKFQGRVTFTLETSISTAYMELSSLRSEDTAVYYCARRGPYNWYFDVWGAGTLVTVSS
VL: DIVMTQTPLSLSVTPGQPASISCKSSKSLLHSNGNTYLYWYLQKPGQSPQLLIYRMSNLFSGVPDRFSGSGSGTDFTLKISRVEAEDVGVYYCLQHLEYPFTFGPGTKVDIKR
CanAg antigen (human) [1]
  EC50: 0.294 µg/mL

B10: HC2 + LC3 (antibody, human IgG1, kappa, V domains shown)
VH: QVQLVQSGAEVKKPGASVKVSCKASDYTFTYYGMNWVRQAPGQGLEWMGWIDTTTGEPSYAQKFQGRVTFTLDTSASTVYMELSSLRSEDTAVYYCARRGPYNWYFDVWGQGTLVTVSS
VL: DIVMTQTPLSLSVTPGQPASISCKSSKSLLHSNGNTYLYWYLQKPGQSPQLLIYRMSNLFSGVPDRFSGSGSGTDFTLKISRVEAEDVGVYYCLQHLEYPFTFGPGTKVDIKR
CanAg antigen (human) [1]
  EC50: 0.354 µg/mL

B11: Cantuzumab ravtansine: humanised ADC targeting CanAg: cantuzumab (HuC242) conjugated to the cytotoxic maytansinoid drug ravtansine; DAR 4.0 (conjugate, chains of the INN, looked up)
VH: QVQLVQSGAEVKKPGETVKISCKASDYTFTYYGMNWVKQAPGQGLKWMGWIDTTTGEPTYAQKFQGRIAFSLETSASTAYLQIKSLKSEDTATYFCARRGPYNWYFDVWGQGTTVTVSS
VL: DIVMTQSPLSVPVTPGEPVSISCRSSKSLLHSNGNTYLYWFLQRPGQSPQLLIYRMSNLVSGVPDRFSGSGSGTAFTLRISRVEAEDVGVYYCLQHLEYPFTFGPGTKLELK
modifications: ravtansine maytansinoid payload, DAR 4.0
notes: humanised ADC targeting CanAg: cantuzumab (HuC242) conjugated to the cytotoxic maytansinoid drug ravtansine; DAR 4.0
Colo-205 xenograft
  TGI [%] at 15 day: 40%
BxPC3 xenograft; 0.2 mg/kg and 0.5 mg/kg, in comparison to ADC-2 and ADC-3 at the same conjugated drug doses (FIG. 20)
  anti-tumour response (in words): weak anti-tumour response
BxPC3 xenograft; 2 mg/kg (53 nmol drug/kg)
  time at which tumour started to regrow: > 32 days
BxPC3 xenograft; 2 mg/kg (53 nmol drug/kg) (FIG. 21 A)
  tumour inhibition (in words): complete tumour inhibition
BxPC3 xenograft; single intravenous dose 0.2 mg/kg (5.3 nmol drug/kg), day 29
  TGI [%] at 29 or 32* day: 24.3%
BxPC3 xenograft; single intravenous dose 0.5 mg/kg (13 nmol drug/kg), day 29
  TGI [%] at 29 or 32* day: 34.6%
BxPC3 xenograft; single intravenous dose 2 mg/kg (53 nmol drug/kg), day 32
  TGI [%] at 29 or 32* day: 104* %
[7]
  TGI [%] at 33 day: 43%
Colo-205 cells
  cells killed: 75%
